Experimental findings from patent US20100074852A1 are described below.

The target in assay [1] is human Neurokinin NK2 receptor (human) (UniProt P21452). Kind of assay: radio-ligand competition binding (CEREP), second screen, reference compound; radioligand not named.
Assay [2] shares this target. Briefly: radio-ligand competition binding (CEREP), reference compound, human receptor in recombinant mammalian cells; radioligand not named.

Chain of human Neurokinin NK2 receptor (human) (P21452 whole entry): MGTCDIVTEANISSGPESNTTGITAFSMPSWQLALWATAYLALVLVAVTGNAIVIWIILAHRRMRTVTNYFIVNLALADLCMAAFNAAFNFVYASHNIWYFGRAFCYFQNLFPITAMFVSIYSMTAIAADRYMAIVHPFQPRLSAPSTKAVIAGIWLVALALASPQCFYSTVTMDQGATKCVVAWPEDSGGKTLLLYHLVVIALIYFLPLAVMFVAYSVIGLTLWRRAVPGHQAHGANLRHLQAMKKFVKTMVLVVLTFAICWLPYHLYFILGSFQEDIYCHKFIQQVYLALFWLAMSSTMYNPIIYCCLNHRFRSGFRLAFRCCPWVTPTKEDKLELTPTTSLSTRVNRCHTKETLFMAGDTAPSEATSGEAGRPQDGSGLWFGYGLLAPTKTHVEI

Regarding “[Nle10]-NKA(4-10) (from UniProt P20366 101-107) (peptide)”, the concentration for half-maximal inhibition (IC50) was determined as 9.7 nM in assay [1] and 9.3 nM in assay [2].
